Drawing on patent US20120213763A1 (COUNCIL OF SCIENTIFIC AND INDUSTRIAL RESEARCH, published 2012), this text covers Km for one protein.

Where “and” joins values, the source holds several entries; their conditions need not be identical. Equal entries are not always repeated.

For data set [1], the target named is PEG Variants of SEQ ID NO 22 (PEGylated Cysteine variants of fibrin domain fusion form of SK).
In data set [2] the target is T1, PEGylated SK D102C (SEQ ID NO 32).
T1 chain: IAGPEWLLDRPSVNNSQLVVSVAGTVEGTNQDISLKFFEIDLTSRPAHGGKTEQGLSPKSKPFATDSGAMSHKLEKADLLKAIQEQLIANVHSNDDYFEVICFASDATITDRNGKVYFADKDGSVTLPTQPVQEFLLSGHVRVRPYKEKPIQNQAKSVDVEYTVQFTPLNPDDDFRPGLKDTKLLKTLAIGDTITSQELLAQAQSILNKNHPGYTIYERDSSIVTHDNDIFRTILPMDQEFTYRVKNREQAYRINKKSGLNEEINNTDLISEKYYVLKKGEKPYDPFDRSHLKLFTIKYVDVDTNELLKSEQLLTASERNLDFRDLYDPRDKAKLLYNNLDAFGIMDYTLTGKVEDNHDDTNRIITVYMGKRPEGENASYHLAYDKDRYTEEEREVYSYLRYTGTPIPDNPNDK

Data set [3] has as its target T2, PEGylated SK D173C (SEQ ID NO 39).
T2 chain: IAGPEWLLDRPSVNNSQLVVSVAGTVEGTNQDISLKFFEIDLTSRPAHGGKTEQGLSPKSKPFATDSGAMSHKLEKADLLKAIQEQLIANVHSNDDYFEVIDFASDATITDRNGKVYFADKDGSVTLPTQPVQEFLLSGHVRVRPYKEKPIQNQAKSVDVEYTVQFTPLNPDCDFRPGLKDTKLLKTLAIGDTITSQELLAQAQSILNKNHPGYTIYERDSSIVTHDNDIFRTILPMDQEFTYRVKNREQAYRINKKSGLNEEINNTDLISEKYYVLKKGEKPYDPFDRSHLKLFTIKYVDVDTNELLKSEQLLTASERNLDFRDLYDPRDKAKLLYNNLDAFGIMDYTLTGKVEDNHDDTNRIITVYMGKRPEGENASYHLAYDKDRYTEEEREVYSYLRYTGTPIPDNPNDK

Data set [4] concerns the target T3, PEGylated SK D96C (SEQ ID NO 31).
T3 chain: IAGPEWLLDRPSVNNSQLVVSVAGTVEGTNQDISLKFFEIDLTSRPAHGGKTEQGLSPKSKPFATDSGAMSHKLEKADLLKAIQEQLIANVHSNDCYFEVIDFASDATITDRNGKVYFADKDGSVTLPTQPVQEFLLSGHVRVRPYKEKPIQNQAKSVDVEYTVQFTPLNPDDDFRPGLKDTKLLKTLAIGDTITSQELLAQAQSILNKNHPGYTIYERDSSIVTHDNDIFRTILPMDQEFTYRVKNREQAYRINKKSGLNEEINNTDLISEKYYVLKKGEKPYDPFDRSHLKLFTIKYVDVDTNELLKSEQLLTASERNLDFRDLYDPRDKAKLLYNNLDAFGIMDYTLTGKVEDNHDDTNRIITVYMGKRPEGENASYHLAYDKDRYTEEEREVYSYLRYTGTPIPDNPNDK

Data set [5] concerns the target T4, PEGylated SK N-Cys (SEQ ID NO 489), Cys at N - 1 position in SK.
T4 chain: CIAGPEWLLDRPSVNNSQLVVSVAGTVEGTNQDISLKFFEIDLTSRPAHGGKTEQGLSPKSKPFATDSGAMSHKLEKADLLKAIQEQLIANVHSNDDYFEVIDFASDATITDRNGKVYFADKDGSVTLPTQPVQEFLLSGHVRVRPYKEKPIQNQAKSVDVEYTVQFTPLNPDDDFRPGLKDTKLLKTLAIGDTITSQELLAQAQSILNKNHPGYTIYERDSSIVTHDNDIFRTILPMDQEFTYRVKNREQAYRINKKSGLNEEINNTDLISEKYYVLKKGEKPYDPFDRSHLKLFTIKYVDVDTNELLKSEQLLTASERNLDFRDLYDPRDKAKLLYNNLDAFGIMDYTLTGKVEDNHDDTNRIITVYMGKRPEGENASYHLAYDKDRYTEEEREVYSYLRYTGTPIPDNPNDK

Data set [6] deals with T5, PEGylated SK N255C (SEQ ID NO 46).
T5 chain: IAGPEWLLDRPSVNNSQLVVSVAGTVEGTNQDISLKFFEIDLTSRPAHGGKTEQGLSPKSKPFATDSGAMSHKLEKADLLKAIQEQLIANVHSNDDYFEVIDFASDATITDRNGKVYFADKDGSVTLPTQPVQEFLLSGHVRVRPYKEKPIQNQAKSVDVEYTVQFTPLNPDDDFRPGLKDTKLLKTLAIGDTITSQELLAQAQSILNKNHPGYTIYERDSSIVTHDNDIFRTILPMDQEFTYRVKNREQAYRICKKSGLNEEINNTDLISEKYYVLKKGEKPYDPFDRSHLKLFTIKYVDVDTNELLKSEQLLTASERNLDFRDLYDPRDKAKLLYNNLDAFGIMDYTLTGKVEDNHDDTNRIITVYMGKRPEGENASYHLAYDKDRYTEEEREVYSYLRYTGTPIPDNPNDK

Data set [7] concerns the target T6, PEGylated SK S105C (SEQ ID NO 33).
T6 chain: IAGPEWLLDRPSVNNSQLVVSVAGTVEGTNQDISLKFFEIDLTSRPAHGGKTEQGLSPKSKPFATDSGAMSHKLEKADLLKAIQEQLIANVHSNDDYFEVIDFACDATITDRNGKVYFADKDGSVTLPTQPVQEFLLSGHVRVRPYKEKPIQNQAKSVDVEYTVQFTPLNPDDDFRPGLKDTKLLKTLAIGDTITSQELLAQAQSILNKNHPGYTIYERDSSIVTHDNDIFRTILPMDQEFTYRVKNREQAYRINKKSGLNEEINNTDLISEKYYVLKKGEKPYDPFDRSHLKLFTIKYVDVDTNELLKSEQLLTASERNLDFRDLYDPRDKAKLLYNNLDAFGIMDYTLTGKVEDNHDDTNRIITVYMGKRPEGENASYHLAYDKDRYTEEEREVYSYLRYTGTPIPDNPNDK

B1: human plasminogen (HPG) (protein)
chain: KVYLSECKTGNGKNYRGTMSKTKNGITCQKWSSTSPHRPRFSPATHPSEGLEENYCRNPDNDPQGPWCYTTDPEKRYDYCDILECEEECMHCSGENYDGKISKTMSGLECQAWDSQSPHAHGYIPSKFPNKNLKKNYCRNPDRELRPWCFTTDPNKRWELCDIPRCTTPPPSSGPTYQCLKGTGENYRGNVAVTVSGHTCQHWSAQTPHTHNRTPENFPCKNLDENYCRNPDGKRAPWCHTTNSQVRWEYCKIPSCDSSPVSTEQLAPTAPPELTPVVQDCYHGDGQSYRGTSSTTTTGKKCQSWSSMTPHRHQKTPENYPNAGLTMNYCRNPDADKGPWCFTTDPSVRWEYCNLKKCSGTEASVVAPPPVVLLPDVETPSEEDCMFGNGKGYRGKRATTVTGTPCQDWAAQEPHRHSIFTPETNPRAGLEKNYCRNPDGDVGGPWCYTTNPRKLYDYCDVPQCAAPSFDCGKPQVEPKKCPGRVVGGCVAHPHSWPWQVSLRTRFGMHFCGGTLISPEWVLTAAHCLEKSPRPSSYKVILGAHQEVNLEPHVQEIEVSRLFLEPTRKDIALLKLSSPAVITDKVIPACLPSPNYVVADRTECFITGWGETQGTFGAGLLKEAQLPVIENKVCNRYEFLNGRVQSTELCAGHLAGGTDSCQGDSGGPLVCFEKDKYILQGVTSWGLGCARPNKPGVYVRVSRFVTWIEGVMRNN
B1: the Km in data set [1] is 0.25 µM and 0.6 µM; in data set [2] it was 0.5 µM; in data set [3], 0.4 µM; in data set [4], 0.5 µM; in data set [5] it was 0.4 µM; in data set [6], 0.4 µM. For the same protein, the Km in data set [7] was 0.5 µM.

By Km is commonly meant the concentration of substrate that gives half-maximal velocity.
